The supplement of paper PMC9170038

Test system: MS2 coat protein
Assay: apparent KD of MS2 coat protein; designed switch direction (-1 OFF switch, 1 ON switch): 1; higher = weaker reporter binding
Summary of the method: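 Designed RNA switches sharing common flanks were transcribed on Illumina chips by stalled E. coli RNA polymerase. They were titrated with SNAP-549-labelled MS2 coat protein, from 0.7 or 1.5 nM doubling to 3 µM, in Tris-HCl pH 7.5 buffer with KCl, MgCl2, BSA, DTT, tRNA and Tween-20. Titrations ran without input, with 200 uM small-molecule ligand, or with an oligonucleotide input. The apparent KD of each design is the median over its clusters, after curve-fitting of normalised cluster fluorescence.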

[1] = Eterna round: R95, input ligand: FMN 200 uM
[2] = Eterna round: R95, input ligand: microRNA oligo, concentration not stated
[3] = Eterna round: R95, input ligand: none
[4] = input ligand: microRNA oligo, concentration not stated

Sequence | apparent KD of MS2 coat protein [1] [nM] | apparent KD of MS2 coat protein [2] [nM] | apparent KD of MS2 coat protein [3] [nM] | apparent KD of MS2 coat protein (input ligand: FMN 200 uM) [nM] | apparent KD of MS2 coat protein [4] [nM] | apparent KD of MS2 coat protein (input ligand: none) [nM]
AAACUACGUGCACAGGAUAUACGUUCCUAUACAUGAGGAUCACCCAUGUACCAACCGAAAAGGAAGUAGAAGGGUGUCCGUAAAC [Esardixequ] (puzzle: Same State 2) | 19.2 | 51.6 | 57.2 | – | – | –
UGGCUCAGACGAGGAUAUGAUCAUGGCGCUUCGGCGCAUACAUGAGGAUCACCCAUGUAAAGUGAUCAGAAGGCGUCUGAGCCA [SSNG2/7-A2] (Eterna round: R96, puzzle: Same State NG 2) | – | – | – | 13.2 | 11.6 | 17.7
GAGGGAUGAGCGUAGGAUAUAGGAGGAGUGACAUGAGGAUCACCCAUGUGGUAUGAGGGAGGAUUCUAGAAGGACGCGGUAGAAG [JR_SS2_Sub064] (puzzle: Same State 2) | 66.4 | 172 | 235 | – | – | –
AGUCCAGCGAAAGCUGGACAAAAGCGUGUACAUGAGGAUCACCCAUGUUCAUGUACAAGCUUUUUGCUCGUCUUAAA [JL mod - D95 - 6] (puzzle: Sensor for hsa-mir-208a) | 30.7 | 17.3 | 96.2 | – | – | –
UGACACACGGCAGGAUAUCGUUAGCAAAGCUAACGAGAAGGGCCUCAUGUCGUGGAAACGUGACAUGAGGAUCACCCAUGUUGC [Omei SS(NG)1 Cv10] (Eterna round: R96, puzzle: Same State NG 1) | – | – | – | 204 | 12.4 | 53.7
UACAAUCUAUCUGAGGAUAUCAUGAUUUUAACAUGAGGAUCACCCAUGUGCAGGAAAACUGCAUAUGAGAAGGCAGAUAGAUUGU [salish99_ss2_r3_070] (puzzle: Same State 2) | 199 | 69.7 | 178 | – | – | –
UUGCGGGCUUGAGGAUAUUGAGUACAUAUGUUUAACAUGAGGAUCACCCAUGUGGGUUGCGGUAUCGAGAAGGUAACUUCCUGC [salish99_SSNG2_r04_811] (Eterna round: R96, puzzle: Same State NG 2) | – | – | – | 100 | 65.3 | 91.1
AUGGUGCAGGUACAGGAUAUGUUGCUCGUAACAUGAGGAUCACCCAUGUACCUAUGAGAUUAAAUGCAGAAGGGUGCACACCACA [Mat - Same State 2 - Mod of UCT - D88] (puzzle: Same State 2) | 40.8 | 325 | 283 | – | – | –
GCUCGACGUAUUGUCUACAUGAGGAUCACCCAUGUAGGUGCGAAGGAUAUCUACGUGUUUCAUGUAGAGAAGGUCGUGUCGAGC [SameState NG3 #93] (Eterna round: R96, puzzle: Same State NG 3) | – | – | – | 36.3 | 35.1 | 46.4
GGAGAGAGAGCGGAGGAUAUUCAAGGAGAGACAUGAGGAUCACCCAUGUAAGAGAGAGAGGAGAGGAAGAAGGCUGAGAGAGAGG [Altered State 2-10 - Jieux - Same State 2] (puzzle: Same State 2) | 32.1 | 26.9 | 42.8 | – | – | –
GCUUGCCGCACAGGAUAUGGGUGCCUGUACAUGAGGAUCACCCAUGUUAAGGGACGGAUUACGAACCAGAAGGGUGAGGCGGGC [Lereatle] (Eterna round: R96, puzzle: Same State NG 2) | – | – | – | 59.4 | 119 | 473
AACAAUCUAUCUGAGGAUAUCAUGAAAUAAACAUGAGGAUCACCCAUGUGCAGGUAAACUGCAUAUGAGAAGGCAGAUAGAUUGA [salish99_ss2_r3_040] (puzzle: Same State 2) | 60.1 | 314 | 571 | – | – | –
GUUACAUGAGGAUCACCCAUGUAUGUGUGGGAGUAAGUGUCUUAGGAUAUCUAUCAUUUAAUGUAAGAGAAGGAAGAUUGUUGU [JMF's solution 97] (Eterna round: R96, puzzle: Same State NG 3) | – | – | – | 122 | 106 | 118
UAGUACAUGCUUUUUGUCUGUCUUAGAUAACAUGAGGAUCACCCAUGUAAGGUGAAAGUUAUAUAGUUUAUGAAUAU [JR_SHM208A_Sub058] (puzzle: Sensor for hsa-mir-208a) | 188 | 346 | 264 | – | – | –
UAAGCAUUCCUAGGAUAUGUAGGAUAUGUACAUGAGGAUCACCCAUGUCUACCAGAGACAGAAGGACAGAAGGAGGAAUGCUUC [pwkr ssNG2 2FMN 1F5s.8] (Eterna round: R96, puzzle: Same State NG 2) | – | – | – | 19.1 | 25.8 | 36.5
GCAGGAAGCAAAGGAUAUGGAAGAUUACUCAGUCCAGAAGGUUGCUUCUUGGAACAUGAGGAUCACCCAUGUCACCGUUACGGC [Eternabot solution 30] (Eterna round: R96, puzzle: Same State NG 1) | – | – | – | 15.8 | 19 | 14.5
AUUAAACAUGAGGAUCACCCAUGUCAACAAAGUCGAGGAUAUGGGCAAAUAAUAUAAGAACCAGAAGGCGAAUAAU [salish99_ss1_r3_058] (puzzle: Same State 1) | 32.1 | 440 | 275 | – | – | –
UGGUACAUGGGAGGAUAUGGGCAAGAGACAUGAGGAUCACCCAUGUUAUAAAAGCCGAGAGGCAUCUAGAAGGCCCAUGUACCU [JL SSNG1 3.90] (Eterna round: R96, puzzle: Same State NG 2) | – | – | – | 14.6 | 38.5 | 55.4
UCUUGGUUUUUGCUCGUUUUUUGUGUUGAACAUGAGGAUCACCCAUGUAUUGUACGAUCCGAUUUAAUAAUGGUCCG [JMF 62] (puzzle: Sensor for hsa-mir-208a) | 63.2 | 55.7 | 83.1 | – | – | –
GUUAGGAAUCUAGCAUACAUGAGGAUCACCCAUGUAAGUGGGAAGGAUAUGGUACAGAAACUGUACCAGAAGGUCUUAUUAAUU [Omei SS(NG) 3 A] (Eterna round: R96, puzzle: Same State NG 3) | – | – | – | 65.3 | 80.4 | 63.1
AUAAGUUUGAUGCUCGUCUCUCCGUACAAACAUGAGGAUCACCCAUGUGGUCGGGAAGUAGCCCGGCCAGUAUGACC [Rigebelain] (puzzle: Sensor for hsa-mir-208a) | 32.7 | 24.4 | 35.2 | – | – | –
UUAAUGAAGUAAGGAUAUACAUGAGGAUCACUCGUAGAAGGUACUAAACAUGAGGAUCACCCAUGUACCGGUCCGUAGACUGGA [JL SSNG1 1.01] (Eterna round: R96, puzzle: Same State NG 1) | – | – | – | 472 | 157 | 572
GUUACAUGAGGAUCACCCAUGUAUGUGUGGGAGUAAGUGUCUUAGGAUAUCUAUCAUUUAAUUAAAGAGAAGGAAGAUUGUUGU [JMF's solution 98] (Eterna round: R96, puzzle: Same State NG 3) | – | – | – | 86.9 | 87.3 | 113
